The values that follow are results of earlier work, collected in PMC7229808.

In this data set the target is PCNA (Saccharomyces cerevisiae) (UniProt P15873). Put plainly: NMR titration.
UniProt P15873, sequence (P15873 whole entry): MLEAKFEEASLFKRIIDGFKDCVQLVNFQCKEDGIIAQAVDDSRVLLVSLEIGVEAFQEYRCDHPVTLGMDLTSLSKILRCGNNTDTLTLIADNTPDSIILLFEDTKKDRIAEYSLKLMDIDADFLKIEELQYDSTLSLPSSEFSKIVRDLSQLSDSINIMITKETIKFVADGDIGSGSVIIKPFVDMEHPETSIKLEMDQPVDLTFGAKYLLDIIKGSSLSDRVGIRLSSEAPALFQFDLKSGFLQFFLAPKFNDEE

In the case of Rev1 BRCT (from UniProt P12689), the Kd was 78 µM.
